In patent publication US20230295324A1 (published 2023):

How the values were obtained:
[1] = target: T1, cynomolgus monkey OX40 protein (Novoprotein, #CB17) (cynomolgus monkey); assay: ELISA, coated cyno OX40 protein
T1 construct: Bought recombinant protein; also called cyno OX40

[2] = target: T2, human 4-1BB on CHO-K1 cells (CHO-K1/hu 4-1BB) (human, UniProt Q07011 24-255); assay: flow cytometry on CHO-K1/hu 4-1BB cells
T2 construct: whole, on cells
Experimental: This example is intended to investigate the specificity of in vitro binding of anti-human OX40 HCAb monoclonal antibodies by detecting 3 receptors of the TNF tumor necrosis factor receptor superfamily and ICOS by flow cytometry. The antibody binding assay at the cellular level was performed using a CHO-K1 cell strain overexpressing human OX40 (CHO-K1/hu OX40), a CHO-K1 cell strain overexpressing human CD40 (CHO-K1/hu CD40, Beijing KYinno, #KC-1286), a CHO-K1 cell strain overexpressing human 4-1BB (CHO-K1/hu 4-1BB, Genscript, #M00538) and an HEK293 cell strain overexpressing human ICOS (HEK293T/ICOS, Genscript, #KC-0210). Briefly, these cells were digested and resuspended in F12K or DMEM complete medium, and the cell density was adjusted to 1×10⁶ cells/mL. The cells were seeded in a 96-well V-bottom plate at 100 μL/well, and centrifuged, and then the supernatant was discarded. Then, the test antibodies diluted in a 3-fold gradient were added at 100 μL/well. The cells were incubated at 4° C. for 1 h away from light. Thereafter, the cells in each well were rinsed twice with 100 μL of pre-cooled PBS, and centrifuged at 500 g at 4° C. for 5 min, and then the supernatant was discarded. […] Finally, the cells in each well were resuspended in 200 μL of pre-cooled PBS, and the fluorescence signal values were read using NovoCyte flow cytometer (ACEA Biosciences).

[3] = target: T3, human OX40 on cells (CHO-K1/hu OX40) (human, UniProt P43489 29-277); assay: FACS, blocking of biotin-human OX40L on CHO-K1/hu OX40 cells
T3 construct: whole, on cells; Also used here for OX40 on the HEK293/OX40/NF-kb reporter cells and on human T cells in the functional assays; also called CHO-K1/OX40; human OX40 cells
T3 sequence (looked up): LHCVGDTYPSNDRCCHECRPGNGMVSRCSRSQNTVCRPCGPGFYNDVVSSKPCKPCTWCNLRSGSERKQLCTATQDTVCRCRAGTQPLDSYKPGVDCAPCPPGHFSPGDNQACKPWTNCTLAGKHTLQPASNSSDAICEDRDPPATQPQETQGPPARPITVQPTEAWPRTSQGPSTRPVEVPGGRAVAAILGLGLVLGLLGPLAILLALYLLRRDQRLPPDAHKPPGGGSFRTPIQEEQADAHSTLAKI

T2 sequence (Q07011 24-255): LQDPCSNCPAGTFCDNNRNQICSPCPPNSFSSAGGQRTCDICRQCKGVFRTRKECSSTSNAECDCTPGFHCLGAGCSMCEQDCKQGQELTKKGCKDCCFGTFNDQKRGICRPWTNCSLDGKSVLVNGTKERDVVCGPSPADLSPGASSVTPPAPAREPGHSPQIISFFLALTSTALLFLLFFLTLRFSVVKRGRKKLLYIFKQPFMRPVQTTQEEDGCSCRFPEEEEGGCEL

B1: PR002067 (antibody, human IgG1, V domains shown)
VH: EVQLLESGGGLVQPGGSLRLSCAASGFTFSSYAMSWVRQAPGKGLEWVSAISGRGGSTFYADSVRGRFTISRDNSKNTLYLQMNSLRAEDTAMYYCVDGTTGTTDVDYWGQGTLVTVSS
notes: no light chain; also called anti-OX40 HCAb antibody
B1 was tested, and the EC50 [1] was 0.232 nM, the “Maximum OD” value [1] was 2.16 OD and the binding result [2] was “no binding”. The IC50 [3] was 166 nM and the “Maximum inhibition rate (%)” value [3] was 64%.
